Substitutions are numbered along the chain they refer to.

The text below walks through data of patent publication US20050287132A1, “Biliverdin reductase fragments and variants, and methods of using biliverdin reductase and such fragments and variants” (University of Rochester, priority 1999, published 2005).

One series relates to PKC. The series is described as follows: Effect of BVR and peptides on PKC activity (MBP substrate, kinetic analysis). The class given is biochemical. As to conditions: for Vmax of the PKC reaction with respect to ATP / Vmax of the PKC reaction with respect to MBP: in the presence of 50 μM BVR or peptide; for Km for the substrate (MBP) of the PKC reaction: in the presence of 50 μM peptide; for nature of kinetics with respect to substrate concentration: MBP varied. As for the experimental part: FIGS. 11A-C are graphs depicting the role of BVR in increasing protein kinase C activity. FIG. 11A depicts the dose-dependence of PKC activity in the presence of BVR or PKC inhibitor peptide (“PKCI”) in an assay system containing 0.5 μg/ml PKC, 50 μM unlabeled ATP, 5 μCi[^32γP]-ATP and 1 mg/ml MBP and carried out as described infra. FIGS. 11B-C are the kinetic analyses of PKC activity carried out with respect to MBP (FIG. 11B) and with respect to ATP (FIG. 11C) in the presence or absence of 50 μM BVR.
FIGS. 12A-C are graphs illustrating the effect of various rBVR fragments on PKC activity. Protein kinase C was incubated at 30° C. with buffer or with the indicated peptides (50 μM) for 15 min prior to addition to a kinase assay using MBP as substrate. FIG. 12A depicts the relative activity for each sample normalizing to that of the PKC and buffer control value. FIGS. 12B-C are the kinetic analyses of PKC with respect to substrate MBP (FIG. 12B) and ATP (FIG. 12C) in the presence or absence of BVR peptide fragments (50 μM). BVR1 peptide corresponds to SEQ. ID. No. 34 and BVR2 peptide corresponds to SEQ. ID. No. 19.
Incubation time was 8 min at 30° C.

Series [1] addresses protein kinase C (a mixture containing equal amounts of isozymes α, β and γ) (Promega).
Series [2] in a line: Biliverdin reductase activity of E. coli expressed hBVR wild type and mutants (Example 1). The class given is biochemical, human. As to conditions: for Activity (nmol bilirubin/min/mg) pH 6.7 + NADH: pH 6.7, NADH cofactor; for Activity (nmol bilirubin/min/mg) pH 6.7 + NADH / Activity (nmol bilirubin/min/mg) pH 8.7 + NADPH: 25°; for Activity (nmol bilirubin/min/mg) pH 8.7 + NADPH: pH 8.7, NADPH cofactor; for Activity % pH 6.7 + NADH / Activity % pH 8.7 + NADPH: Cys→Ala mutations; for Activity % pH 6.7 + NADH: wild type = 100, pH 6.7, NADH; for Activity % pH 8.7 + NADPH: wild type = 100, pH 8.7, NADPH. As for the experimental part: SalI linkers are underlined in each primer. The products were digested with SalI and cloned into the vector pGEX 4T-2. Orientation was determined by restriction analysis and confirmed by sequencing. The ligation places the BVR coding region in frame with the GST protein of the vector. GST-BVR fusion proteins were purified from bacterial clones containing the plasmid, and grown overnight using a glutathione-sepharose 4B column (Pharmacia). The reductase portion of the fusion protein was released by thrombin protease treatment.
Activity was determined as previously described (Kutty et al., J. Biol. Chem. 256:3956-3962 (1981); Huang et al., J. Biol. Chem. 264:7844-7849 (1989), which are hereby incorporated by reference). Activity was determined in a 1 ml assay volume that contained 0.1 M Tris/HCl, pH 8.7 NADPH (100 μM), and biliverdin (5 μM). Reductase activity was also measured using NADH (1 mM) as the cofactor; in this case 0.1 M potassium phosphate pH 6.75, was substituted for Tris/HCl. SDS/PAGE was performed by the method of Laemmli, Nature 227:680-685 (1970), which is hereby incorporated by reference. Western blot analysis was performed using anti-serum to human kidney biliverdin reductase as previously described (Maines et al., Arch. Biochem. Biophys. 300:320-326 (1993), which is hereby incorporated by reference). The relative amounts of immunoreactive protein were determined by scanning the blot using a laser densitometer and comparing the area under the peak for each mutant with the wild type. The rate of activity was measured as the increase in 450 nm absorbance at 25° C. Specific activity is expressed as nmol bilirubin/min/ mg protein.

Series [3] is described as follows: Biliverdin reductase catalytic activity of recombinant wild type and mutant hBVR (Example 2, FIG. 3). The class given is biochemical, human. As to conditions: pH/cofactor not stated. As for the experimental part:
FIGS. 3A-C are graphs depicting the effects of mutation of Gly^17, Ser^149, and Lys^296 on BVR catalytic activity. Purified preparations of recombinant wild type and mutant BVR with substitution of Gly^17 (FIG. 3A), Ser^149 (FIG. 3B), or Lys^296 (FIG. 3C) with Ala were assessed for BVR activity at pH 6.5 using NADH as cofactor and at pH 8.7 with NADPH as cofactor. Values presented are in percent wild type activity for each pH. The specific activity of the wild type preparation was 1744 nmol bilirubin produced min^−1 mg^−1 at pH 6.5 and 1147 nmol bilirubin produced min^−1 mg^−1 at pH 8.7. Values presented are representative of 2-4 determinations.
GST-BVR fusion proteins were prepared as described in Example 1. Human kidney biliverdin reductase was purified to homogeneity as described by Maines et al., Arch. Biochem. Biophys. 300:320-326 (1993), which is hereby incorporated by reference. The purified reductase preparations were judged to be homogenous by SDS-PAGE. Protein concentration was determined by the method of Bradford, Anal. Biochem. 72:248-254 (1976), which is hereby incorporated by reference.
Activity was determined as previously described by Huang et al., J. Biol. Chem. 264:7844-7849 (1989), which is hereby incorporated by reference, using NADPH as the cofactor at pH 8.7 in 0.1 M […] or NADH at pH 6.5 in […]. The rate of activity was measured as the increase in 450 nm absorbance at 25° C. Specific activity is expressed in units/mg protein, where 1 unit catalyzes the formation of 1 nmol bilirubin/min.

The target of series [4] is protein kinase C (a mixture containing equal amounts of isozymes α, β and γ) (Promega). Kind of series: cell-based or functional assay.

Consider QKLCHQKK [peptide 2, ID; No. 19], for which, in the series with PKC, the “Vmax of the PKC reaction with respect to ATP” value is 3.12 pmol/min, the “Vmax of the PKC reaction with respect to MBP” value is given as 1.82 pmol/min and the “Km for the substrate (MBP) of the PKC reaction” value came to 0.12 mg/mL. For the same molecule, in the series on PKC (peptide 50 μM, MBP substrate), the “inhibition of PKC activity” value was “more than 75%”. In addition, the “nature of kinetics with respect to substrate concentration” value in the series with PKC (peptide 50 μM) was “uncompetitive”.

On to KKRIMHC [peptide 1, ID; No. 18], for which, in the series on PKC, the “Vmax of the PKC reaction with respect to ATP” value is 4.2 pmol/min, the “Vmax of the PKC reaction with respect to MBP” value was found to be 2.92 pmol/min and the “Km for the substrate (MBP) of the PKC reaction” value worked out at 0.39 mg/mL. Also, the “effect on PKC activity” value in the series on PKC (peptide 50 μM, MBP substrate) is listed as “stimulated PKC activity”. Besides, in the series on PKC (peptide 50 μM), the “nature of kinetics with respect to substrate concentration” value was “mixed kinetics”.

As for “RKRCLRRL [PKCI peptide, ID; No. 29, reference compound]”, the “dose dependence of PKC activity (^32P into MBP)” value in the series on PKC (PKC preincubated 15 min at 30° C., MBP substrate) is recorded as “dose-dependent inhibition of activity”. Further, the “inhibition of PKC activity” value in the series with PKC (peptide 50 μM, MBP substrate) stood at 90%.

B1: rat biliverdin reductase as used in the PKC activity assays (protein)
chain: AEPKRKFGVVVVGVGRAGSVRLRDLKDPRSAAFLNLIGFVSRRELGSLDEVRQISLEDALRSQEIDVAYICSESSSHEDYIRQFLQAGKHVLVEYPMTLSFAAAQELWELAAQKGRVLHEEHVELLMEEFEFLRREVLGKELLKGSLRFTASPLEEERFGFPAFSGISRLTWLVSLFGELSLISATLEERKEDQYMKMTVQLETQNKGLLSWIEEKGPGLKRNRYVNFQFTSGSLEEVPSVGVNKNIFLKDQDIFVQKLLDQVSAEDLAAEKKRIMHCLGLASDIQKLCHQKK
As to B1, in series [1], the “Km of the PKC reaction for the substrate MBP, upon addition of BVR” value was “substrate Km increasing from 0.145 to 0.16 upon addition of BVR to the reaction”; the “PKC activity, incorporation of 32P into MBP, after 15 min preincubation of PKC with varying concentrations of BVR” value is “incorporation of ^32P into MBP was increased in a dose-dependent manner in the presence of BVR”; the “Vmax of the PKC reaction with respect to ATP, in the presence of 50 µM BVR” value was “increased from 3.3 to 4.9 and 1.7 to 2.9 pmol/min, respectively”; the “Vmax of the PKC reaction with respect to MBP, in the presence of 50 µM BVR” value was “increased from 3.3 to 4.9 and 1.7 to 2.9 pmol/min, respectively”.

B2: Ser^44: hBVR SEQ. ID. No. 1 with Ser^44→Ala within one of the kinase motifs (protein, listed as Homo sapiens)
chain: MNAEPERKFGVVVVGVGRAGSVRMRDLRNPHPSSAFLNLIGFVARRELGSIDGVQQISLEDALSSQEVEVAYICSESSSHEDYIRQFLNAGKHVLVEYPMTLSLAAAQELWELAEQKGKVLHEEHVELLMEEFAFLKKEVVGKDLLKGSLLFTSDPLEEDRFGFPAFSGISRLTWLVSLFGELSLVSATLEERKEDQYMKMTVCLETEKKSPLSWIEEKGPGLKRNRYLSFHFKSGSLENVPNVGVNKNIFLKDQNIFVQKLLGQFSEKELAAEKKRILHCLGLAEEIQKYCCSRK
With B2, in series [2], the “Activity (nmol bilirubin/min/mg) pH 6.7 + NADH” value is given as 7443 nmol bilirubin/min/mg and the “Activity (nmol bilirubin/min/mg) pH 8.7 + NADPH” value amounted to 333 nmol bilirubin/min/mg. Moreover, the “increase in activity at pH 6.7 with NADH” value in series [2] (pH 6.7, NADH, versus wild type) was found to be 2.5 fold. In addition, the “reduction in NADPH-dependent activity” value in series [2] (pH 8.7, NADPH, versus wild type) is on record as 70-75%. Further, in series [3], the enzyme activity result was “did not display loss of enzyme activity”.

For the molecule QKLCHQKK [BVR peptide Q288KLCHQKK295 (peptide 2)], in series [4], the Km of the PKC reaction for the substrate MBP, peptide 50 µM (control 0.165 mg/ml) stood at 0.12 mg/mL; the Vmax of the PKC reaction with respect to the cofactor ATP, peptide 50 µM (control 3.81 pmol/min) was found to be 3.12 pmol/min; the Vmax of the PKC reaction with respect to the substrate MBP, peptide 50 µM (control 2.25 pmol/min) stood at 1.82 pmol/min; the inhibition of PKC activity with MBP as substrate, peptide 50 µM is over 75%.

Regarding RKRCLRRL [PKC inhibitor peptide RKRCLRRL], the inhibition of PKC activity, peptide at the same concentration as BVR peptide 2 in series [4] came to 90%.

B3: Lys^92/His^93: hBVR with Lys^92His^93→Ala-Ala within the oxidoreductase motif (protein, UniProt P53004 3-296, looked up, variant K92A H93A)
Biliverdin reductase A: AEPERKFGVVVVGVGRAGSVRMRDLRNPHPSSAFLNLIGFVSRRELGSIDGVQQISLEDALSSQEVEVAYICSESSSHEDYIRQFLNAGAAVLVEYPMTLSLAAAQELWELAEQKGKVLHEEHVELLMEEFAFLKKEVVGKDLLKGSLLFTAGPLEEERFGFPAFSGISRLTWLVSLFGELSLVSATLEERKEDQYMKMTVCLETEKKSPLSWIEEKGPGLKRNRYLSFHFKSGSLENVPNVGVNKNIFLKDQNIFVQKLLGQFSEKELAAEKKRILHCLGLAEEIQKYCCSRK
B3: in series [2], the “Activity (nmol bilirubin/min/mg) pH 6.7 + NADH” value is on record as 0 nmol bilirubin/min/mg and the “Activity (nmol bilirubin/min/mg) pH 8.7 + NADPH” value came to 0 nmol bilirubin/min/mg. Further, the “reductase activity relative to the control (wild type)” value in series [2] (pH 6.7 with NADH) is reported as “loss of enzyme activity”. Further, in series [2] (pH 8.7 with NADPH), the “reductase activity relative to the control (wild type)” value is given as “loss of enzyme activity”.

B4: Cys^74,204^,^281,292,293: hBVR construct with all 5 Cys residues combined changed to Ala (protein, UniProt P53004 3-296, looked up, variant C74A C204A C281A C292A C293A)
Biliverdin reductase A: B3 Biliverdin reductase A with C72A, A90K, A91H, C202A, C279A, C290A, C291A
On to B4, for which, in series [2], the “Activity % pH 6.7 + NADH” value worked out at 1% and the “Activity % pH 8.7 + NADPH” value came out at 10%.

B5: Cys^292^,^293: hBVR construct with Cys^292+Cys^293→Ala mutations (protein, UniProt P53004 3-296, looked up, variant C292A C293A)
Biliverdin reductase A: B3 Biliverdin reductase A with A90K, A91H, C290A, C291A
With B5, in series [2], the “Activity % pH 6.7 + NADH” value worked out at 94% and the “Activity % pH 8.7 + NADPH” value was 100%.

B6: Cys^74: hBVR with Cys^74→Ala within a substrate binding domain (protein, UniProt P53004 3-296, looked up, variant C74A)
Biliverdin reductase A: B3 Biliverdin reductase A with C72A, A90K, A91H
As to B6, in series [2], the “Activity % pH 6.7 + NADH” value came out at 44% and the “Activity % pH 8.7 + NADPH” value is reported as 45%.

B7: Cys^281: hBVR with Cys^281→Ala within the zinc finger domain (protein, UniProt P53004 3-296, looked up, variant C281A)
Biliverdin reductase A: B3 Biliverdin reductase A with A90K, A91H, C279A
For the molecule B7, in series [2], the “Activity % pH 6.7 + NADH” value worked out at 31% and the “Activity % pH 8.7 + NADPH” value is on record as 23%.

On to KKRIMHC [BVR peptide K274KRIMHC280 (peptide 1)], for which, in series [4], the Km of the PKC reaction for the substrate MBP, peptide 50 µM (control 0.165 mg/ml) worked out at 0.39 mg/mL; the Vmax of the PKC reaction with respect to the cofactor ATP, peptide 50 µM (control 3.81 pmol/min) amounted to 4.2 pmol/min; the Vmax of the PKC reaction with respect to the substrate MBP, peptide 50 µM (control 2.25 pmol/min) stood at 2.92 pmol/min.
